Experimental data as given in article PMC9857240.

Molecular target: His6-GFP-nCLU
Assay: AlphaScreen or HTRF; 30 nM His6-GFP fusion protein with 0-60 nM biotinylated GST-IPO13; triplicates, sigmoidal association curves

Kd: 2.8 nM
B1: biotinylated GST-IPO13 (natural protein)
chain: MERREEQLGAAGAGAAPALDFTVENVEKALHQLYYDPNIDNKNLAQKWLMQAQVSPQAWHFSWQLLQPDKVPEIQYFGASALHIKISRYWSDIPTDQYESLKAQLFTQITRFASGSKIVLTRLCVALASLALSMMPDAWPCAVADMVRLFQAEDSPVDSQGRCLALLELLTVLPEEFQTSRLPQYRKGLVRTSLAVECGTVFPLLEQLLQQPSSPSCVRQKVLKCFSSWVQLEVPLQDCEALIQAAFAALQDSELFDSSVEAIVNAISQPDAQRYVNTLLKLIPLVLGLQEQLRQAVQNGDMETSHGICRIAVALGENHSRALLDQVEHWQSFLALVNMIMFCTGIPGHYPVNETTSSLTLTFWYTLQDDILSFEAEKQAVYQQVYRPVYFQLVDVLLHKAQFPSDEEYGFWSSDEKEQFRIYRVDISDTLMYVYEMLGAELLSNLYDKLGRLLTSSEEPYSWQHTEALLYGFQSIAETIDVNYSDVVPGLIGLIPRISISNVQLADTVMFTIGALSEWLADHPVMINSVLPLVLHALGNPELSVSSVSTLKKICRECKYDLPPYAANIVAVSQDVLMKQIHKTSQCMWLMQALGFLLSALQVEEILKNLHSLISPYIQQLEKLAEEIPNPSNKLAIVHILGLLSNLFTTLDVSHHEDDHEGPELRKLPVPQGPNPVVVVLQQVFQLIQKVLSKWLNDAQVVEAVCAIFEKSVKTLLDDFAPMVPQLCEMLGRMYSTVPQASALDLTRQLVHIFAHEPAHFPPIEALFLLVTSVTLSLFQQGPRDHPDIVDSFMQLLAQALKRKPDLFLCERLDVKAVFQCAVLALKFPEAPTVKASCGFFTELLPRCGEIESVGKVVQEDGRMLLIAVLEAIGGQASRSLMDCFADILFALNKHCFSLLSMWIKEALQPPGFPSARLSPEQKDTFSQQILRERVNKRRVKEMVKEFTLLCRGLHGTDYTADY
modifications: biotinylated
